This data set can be described thus: label from the status in PepcDB records.
For “MSEFTRVFNYKIKLIIAISLFFTQLISANASVEVNISVEQPEHHLANVELKFEQVNESKVNFYLPTWRTGRYETLNLANGIREFIAQDSQGNVLSWHKIDKNTWQVSDAKNKKITLTYQVYANQLAKRTRHIDDSHAFLDSSAVVMYSQASRSSEHIVQLSVPKLWKSFSGLESGNNSHQFIAHDYDQLVDSPIESGINEHYQFSVDNRQYELVIWGEGNYDSAKMVKDLQILVKQSKHVWQGYPFKRYVFMVHATSGARGATEHVNSTIIQRSRFKFSTRKDYLSFIAVAAHEFVHTWNVKQYRPKGIVPYDYQQENYSNLLWLVEGSTSYLQYQLLLRGNLMTTDEFFTALAKRITAHAHKPGKESQSVAQASFDAWISEGGDYGNNHSVNIYSEGFLASWLLDFDILAKTALSKSYRNAHNQLYQQHRLPKGYDEQDVLSILEQITGDDYQVWWQKNIQGTTKINFNRLLAKAGLKMSYAKNVKDKSSEQSKVWTGLKTKLDNHDLIVSSVEKNSPAWDAGLTTEDVIVAIDGLRLLDNELDNRLKDFKPKQTITVTYFRRDKLITSRLKLAAIPKNKLKIIPIAKASVEQKAFFKAWMGVDFPEKK”, the protein production entry is reported as “failed”.

Consider “MSEHFLQQKYNSISENPIYLFWFLQFCFWSFVSLISLVSLTLWYVQIDVAHLNHTFLQSFVGVVFSLPLYWAFMRCWNTSIFIRVFVSITSVLLISFIWTVIRVELYIRLTGTDEIWTQFGGWYFSSIFIYFCWTGFFHGIRYYQLLQFEHEIMLKKEAEAKTEQLKRLSAQTVARDAKIKMLRYQLNPHFLCNTLNAINSLIECELPEKAQLMTVQLSKFLRYSLDNDPDTKIALEFELKALELYLEIEKTRFGERLQLDFQISEAAKAAFIPSLLLQPLIENSMKHVIAQNEEGGVISLSADVIDNMLVLELSDTGSAKRVDINKIKSKTGRGVGLRNIDERLKALYTDNYVYNLNVRPSGGLKTTIKLPLDSQGEPDIVNQAYNSMKVC”, for which the protein production result is on record as “failed”.

For “MSEKPWVSTQPLVTKRGLPLNIDRDIAYRPASAVSLSEVAQFITRETGLPVVVAPDALNPSILSSRPGNSGAAAAPPAVTMSNPDNLAALMPTGLAGSLPSGARSLESELLSGTPGLISGIKFSGPVSALLNQVTSRLGLSWHYDPQLQGARITYFDTRTFDVWAFGDDQVIESVVKSGLITSTGSGSNGSGGTSSGTGASGDSGSNQSTTVQIKTSLLSDIENNVKAMLSTQPAGRIFLSRSTGTLTVSDRPEVLNRIASYLQSTNRNITRQVLFNVKIFEVNFTDRDQTAVNWKAVYKSVSGRWGLSLANKVAGISTDAISGSVSILDTSSSPWAGSSAVIQALSEQGRISDVRSPSITTLNLQPAPIQIGNVKSYVASSSTTTTASVGSSTSLTPATITSGFNMMLLPKIIDRDNMLLMISISMSSKPTFTTFTSNGSSVQTADFDTKNAAPKVLLRSGQTLVLTGFEENTENADKTGVGDASFFGLGGSRTRSSLEHHHHHH”, the protein production entry is reported as “failed”.

Consider “MSELARIVPDSEKISHILIEQGRKITFYSYFSNTFVLGIIAYILVDNTVALDKNSLFFVKTLPFRKKDISLSFMLFKFVIMILLYELVMIISTPAIKLVTTVPIEYVIFFIVQHLFYLVVIGVIEFIHCLFTFFLKRRVKQINSLKVIGDSLLMIFATFYFFDFRYGLELFLANQLWSISYMIPITFFLIVVCLMLISIGLLRLISILENQMSQHSKYIYIPFLNKVIFRYKANWYFISFTTVVMLVIFFQSGLRTMLFILTTVMAFSGVLLLSYGDITADFRKQYDLLRIKIRNEWLSQLLLVIMLAMPLLLLCFWGFGELAQLITALSLSLVAIILGYVFPKSQGSLNETTSLLLLFIVFVLVSLLTNRSFGWLILIVLVLLHLLVIKKVRNEKE”, for which the protein production result is reported as “failed”.

Turning to “MSELDVEAVDDINAPAGIDAAEYVLYGGKGGVGKTTCAAATALASARDDTATLVVSTDPAHSLSDTLDADIPATPTRIREDIPLYAAEIDPEAAVGEGPLGVEEDALGGVGELLGGDGMFGGGAGGAAGAGQAEDPIGGEEGLLGGSMPGADEAAALRLLLDYVDDDRFDRVVIDTAPTGHTLRLLELPETMDSMVGKILQLRERFSGMMDNLTGMFGDDQDVDAEAGIEDLQELSDRIEHLRGILQDPQRTDFRIVMVPEELSVVESERLLAQLGEFNIPVSTVVVNRVMQDPSEVLGEDVDIAGPNHADCEFCARRWQVQQDALARSQDMFRGHDVRRVPLFAEEVRGERLLSVVAACLD”, the protein production entry was “failed”.

For “MSELGNRAKDQKKIYQRWAPVYDRVYRGILRDGHRKLAGLAAAAGTDILEIGTGTGLTLAHYPSRCRVTGIDISEHMIARAREKVRRENLRHVRALEVMDAHVLRFADKSFDVVCLPFVITLIPEPERALDECARVLRPGGEIILASKLGDGAGLQGAIEAAVAPLVRHIGWSSAFRIHRIVAWAERRGDFSTAEILPVFPNGFFKIVRLKQRGFSA”, the protein production entry is on record as “failed”.

On to “MSELIKHSSNFLAAISPDNDCSITATNDFEAMMSWLNGYKKKPINTSRNYAREVKRYLIWLSCQGLTLAQVKIEDVYEYFNLLERPTTEWIIPDKKTDKIYPTQLIKYGGLSNRSINYTHTVLGLFYSFLQDAGYLTKNPINLEHHHHHH”, for which the protein production result is recorded as “failed”.

As for “MSELIKHSSNFLAAISPDNDCSITATNDFEAMMSWLNGYKKKPINTSRNYAREVKRYLIWLSCQGLTLAQVKIEDVYEYFNLLERPTTEWIIPDKKTDKIYPTQLIKYGGLSNRSINYTHTVLGLFYSFLQDAGYLTKNPINLVKKASATTESEQYRHLDLPAWQTLWTWILGYENRVITEDQPAKMIKKASRYRWVFALLYHSGIRCAEAANALMSDLVRKNNTWSLKVTGKGNKMRLVTVNSLLLKELIHYRRSLLLTDYPSSHDDTPLIVSIQKNRQGSMTTRTLSSLIKEVTELVCADCQDDQITRQIETMTTHWLRHTNATHRFMAGASLETTQDELGHADPRTTRIYAKTSNEKRKLDAERLADLFDGIG”, the protein production entry is recorded as “failed”.

As for “MSELTAFGHSLSSGYEVVVIKPQSLSDTTLIVQALRADKAVILNLEHLDVAEAQRISDFAAGSTYAINGHQSRLGDGVFLFTPNVINIQERTAVPTPAGLV”, the protein production entry is listed as “failed”.

Regarding “MSEMIYGIHAVQALLERAPERFQEVFILKGREDKRLLPLIHALESQGVVIQLANRQYLDEKSDGAVHQGIIARVKPGRQYQENDLPDLIASLDQPFLLILDGVTDPHNLGACLRSADAAGVHAVIVPKDRSAQLNATAKKVACGAAESVPLIRVTNLARTMRMLQEENIWIVGTAGEADHTLYQSKMTGRLALVMGAEGEGMRRLTREHCDELISIPMAGSVSSLNVSVATGICLFEAVRQRS”, the protein production entry is given as “not failed”.

With “MSEMLYILQTVLLPIFIMIFLGYILQKKFTLDLNTLAKLNIYVFVPGFIFVKFYKTHFALSLLFYIIIFFVIYMFVLFLIGKLLSMFRKTDKGETTTLTNSLMFFNSGNYGVPVNDLVFKGDPLAMSVQVIVLSLQNIFTFSYGVFAIQSLHIGKLKALLGYFKMPVLYALLLAIILNYNHIPIPEFIWTPANYVADAMIAIALLMLGAQISNIKFSLKWSKSYAYVFIRLIIGPLIALVIIKIMGIEGIIAQTLFIASAMPTSVNSSVIAQEYDNHPELAAELVFLSTLLSAITVVIVIYMSKILF”, the protein production entry is “failed”.

As for “MSEMSPKEFKHILVGVDDSDDAQLAFRYAINRAKSDGAKLTIVSILEQDNMNVYEAMSKDFVHGQRKDLEEHVQQYQKLARDFGVTDVNAVVDEGDPGETIVKTVIPALKPDLLVIGSVAKHGVRKYFGSQAAYMAKHAPISVLVIR”, the protein production result was “failed”.

Take “MSENMVNLPDSLYEDYSKLKLTSPSNASSSSSAPPPRLSVVAHPTVEMIIQWVCDIHKPKSYMSDFALHNLAYHRNDFEFLPSLLWESKNTVYIMLQEVFEAYRHLAGHISLRLFPHPLNPLRVYNVFLLFQSMACHPDTSRQFLRAKMPNYFYPLMDTGLIDKSDECMRLAALGVIAHMLKASEDGAVNRYLMESGVVGFCVKPIEFGSTETKKVALYILDKIMSTDQGLYYCCVLADRFYVIDELLKKVLFYLSNMVRPPSSLFSLVTGCYVKLSQNSRARNGIRRYTPFLLFDGTFSRLYAEDPVAANNRIQLLQNLDN”: the protein production entry is “failed”.

Regarding “MSENQKEVSPPQAISVKSEASSSIFSKPISTSSPAGLAAAQRVTPGKLSTLLLEMGPLAIRHITQTLCLDIPCFKDLSSSKQRRLIMSAMESGDKEKSVVFEKIGWGQWSAKRVDPANFDKELEATNFANAKVKDLISQESQRRKSNNSNSNSGGKVEMPMKVEHNITNIDGATTPPTAVASTTIPVNIKRSKSPLAAANVVYIDENALASEDEDEEFDEDDHHLHYQNKSRNSSNNFGKSSNGDPYSFGRRRSQVVFADSTPENIEHEIIAQKIRPLLRNRRRSSIKPHTPFISKLNTHQDSSYLSPNTTSTTTPSNNNSNSNQAKIDLEKLTATSEPTSRRASRLSVSKESSIRSTLFPNKNYLIVTTNPNSKATSVSTSPKLEEQMNVSSNPIVLSDKEKHRVASQHLNGESSPQLVPHSHHQPHSDTDEEDWESIGAASLRNNSLAPNIDSVASSTNGVVSPKPTNPSFTNSQNGDIEPPLQHDQQKHEQQPRNGEDNSAAFLLMSLKS”, the protein production entry is “not failed”.

For the sequence “MSEPVSSATVLAGGLMGASVFGLATGTDYGVVFGAFAGSVFYVATATNIGRIRLVAYFITSFIVGVLGAGLIGTKLAAITHYEKPLDALGAVIISAMCIKFLTFLNSQDLNTLFSILSRIRGGGSDGSK”, the protein production entry was “failed”.

On to “MSEQPSSVSGVKKVAIIPEIHISAPVLAKIVSYVAEESVDALKPFVKAGPLFKSAVYSKETLSCVRLDKSRYYMWWSTTHSIYYHFFTKSLEAKNPHALNAVLYKPIAYENFAAECYRATLWAELYGEYEA”, for which the protein production result is “failed”.

For the sequence “MSEREHWQRVYESKPSDAVSWFQAEATLSLDLIRRIGAPREAAIIDVGGGASTLVDGLLAEGFGDLTVLDLSDAALRVARNRLGARGEEVRWIAGDITGVDLPEATYDVWHDRAVFHFLTTAEARRAYVRQVMKAVRHGGHVIVATFAADGPTECSGLPVMRYDADELHAEFGSAFQLTEHRDEHHVTPAGRVQHFVYCHCLKRLLEHHHHHH”, the protein production entry is on record as “failed”.

As for “MSESTYPSVKDLTLEEKASLTSGGDSWHLQGVESKGIPGYMITDGPHGLRKSLASSTGETDLNNSVPATCFPPAAGLSSSWNPELIHKVGEAMAEECIQEKVAVILGPGVNIKRNPLGGRCFEYWSEDPYLAGHEAVGIVAGVQSKGVGTSLKHFAANNQETDRLRVDARISQRALREIYLPAFEHIVKTAQPWTIMCSYNRINGVHSAQNHWLLTDVLRDEWGFEGIVMSDWGADHDRVASLNAGLNLEMPPSYTDDQIVYAARDGRIAPAQLDRMAQGMIDLINKACAAMSIDGYRFDVDAHDEVAHQAAIESIVLLKNDDAILPLNADPAAARKIAVIGEFARTPRYQGGGSSHITPTKMTSFLDTLAERGIKADFAPGFTLDLEPADPALESEAVETAKNADVVLMFLGLPEAAESEGFDRDTLDMPAKQIALLEQVAAANQNVVVVLSNGSVVSVAPWAKNAKGILESWLLGQSGGPALADVIFGQVSPSGKLAQSIPLDINDDPSMLNWPGEEGHVDYGEGVFVGYRYYDTYGKSVDYPFGYGLSYATFEIADVAAAKTGANTATVTATVTATVTNTSDVDAAETVQVYVAPGKADVARPKHELKGFTKVFLKAGESKSVTIDLDERAFAYWSEKYNDWHVESGEYAIEVGVSSRDIADTVVVTLEGDGKSQPLTEWSTYGEWEADPFGAKIVAAVAAAGEAGELTKLPDNAMMRIFLNSMPINSLSTLLGEGGKKIAKFMVDEYAKLAK”, the protein production entry is listed as “failed”.

Turning to “MSETITFPPLMTGEAAGPGQDPFDLACQKAELGVDAGLVVYELGTDVLRAALVLAPEVPLAKAMAMLPVCGVGFQNALGALAPPEVAVHLDWNGALRINGARCGRLRIAASTDDPDTQPDWLVVGLDLPLWPEGDGGETPDETALYAEGCADVAAPRLLESWARHCLHWINRWDEGELETIHGEWRGLAHGMGEARTEAGRSGTFLGVDEDFGMLLRDETTTHLIPLTTVLVQD”, the protein production result is listed as “not failed”.

Values taken from a protein production outcome set (Wang et al. 2014).
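Further: failed if final PepcDB status was selected cloned or expressed and not failed if soluble or beyond.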
